This is an account of results in publication PMC6613617, “Human DNA polymerase delta requires an iron–sulfur cluster for high-fidelity DNA synthesis” (Life Science Alliance, 2019).

Where a chain is given by its changes, count along the chain named. In names and notes the source's numbering stands.

Assay [1] deals with T1, N-terminally Flag-tagged POLD1 (catalytic subunit of human DNA polymerase delta), wild type (human, UniProt P28340 1-1107).
T1 construct: DNA polymerase delta catalytic subunit POLD1/p125, human; also called p125; Flag-POLD1; source: Sf9 insect cells, baculovirus co-infection, in lysate; Flag-purified (Flag-M2 agarose, 3x Flag peptide elution); not shown: Flag, N-terminal, kept
T1 sequence (looked up): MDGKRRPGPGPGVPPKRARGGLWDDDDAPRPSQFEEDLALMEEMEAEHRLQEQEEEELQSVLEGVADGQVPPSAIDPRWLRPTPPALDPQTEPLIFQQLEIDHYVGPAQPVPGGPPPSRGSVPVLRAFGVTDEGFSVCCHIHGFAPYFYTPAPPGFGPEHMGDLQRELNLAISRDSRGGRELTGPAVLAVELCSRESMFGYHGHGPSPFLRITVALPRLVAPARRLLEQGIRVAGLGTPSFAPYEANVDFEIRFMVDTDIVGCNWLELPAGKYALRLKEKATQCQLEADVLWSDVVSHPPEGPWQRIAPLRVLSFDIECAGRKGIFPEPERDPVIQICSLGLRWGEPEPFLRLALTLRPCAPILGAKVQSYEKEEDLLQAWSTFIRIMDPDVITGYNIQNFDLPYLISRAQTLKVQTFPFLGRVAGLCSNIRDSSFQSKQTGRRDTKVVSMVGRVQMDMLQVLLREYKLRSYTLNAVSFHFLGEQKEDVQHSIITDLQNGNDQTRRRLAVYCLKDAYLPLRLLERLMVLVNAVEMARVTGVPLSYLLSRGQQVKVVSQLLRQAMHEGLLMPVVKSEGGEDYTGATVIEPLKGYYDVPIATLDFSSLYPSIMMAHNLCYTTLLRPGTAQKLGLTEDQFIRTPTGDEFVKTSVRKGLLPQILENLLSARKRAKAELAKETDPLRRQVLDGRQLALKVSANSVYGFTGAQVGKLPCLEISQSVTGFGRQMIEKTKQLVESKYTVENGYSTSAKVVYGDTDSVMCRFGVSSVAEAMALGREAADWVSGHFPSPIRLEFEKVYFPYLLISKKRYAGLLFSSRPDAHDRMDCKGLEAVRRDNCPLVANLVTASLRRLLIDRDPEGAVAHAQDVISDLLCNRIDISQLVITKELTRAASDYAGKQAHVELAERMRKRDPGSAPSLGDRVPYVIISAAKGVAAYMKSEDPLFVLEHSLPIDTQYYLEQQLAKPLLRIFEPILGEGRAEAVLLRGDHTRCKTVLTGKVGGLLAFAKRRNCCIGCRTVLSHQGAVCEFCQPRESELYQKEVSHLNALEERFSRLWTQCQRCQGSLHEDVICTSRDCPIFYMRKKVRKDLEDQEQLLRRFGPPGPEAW
Put plainly: pull-down; Flag-pull down (Flag-M2 agarose) from lysate of Sf9 cells co-expressing Flag-POLD1 variant, POLD2, POLD3, POLD4 and untagged PCNA; 50 mM Tris-HCl pH 8.0, 200 mM NaCl, 0.25% NP-40, 4°C; SDS-PAGE with protein stain. The conditions noted are these: partners not purified.

In assay [2] the target is T2, N-terminally Flag-tagged POLD1 C1076S (human, UniProt P28340 1-1107, C1076S).
T2 construct: DNA polymerase delta catalytic subunit POLD1/p125, human; variant made by site-directed mutagenesis; also called CS; Pol δ-CS (bait subunit); source: Sf9 insect cells, baculovirus co-infection, in lysate; Flag-purified (Flag-M2 agarose, 3x Flag peptide elution); not shown: Flag, N-terminal, kept
T2 sequence (looked up): T1 sequence (looked up) with C1076S
The description is as above. The conditions noted are these: partners not purified.

B1: POLD3 (accessory subunit of human DNA polymerase delta), untagged (natural protein, UniProt Q15054 1-466, looked up)
chain: MADQLYLENIDEFVTDQNKIVTYKWLSYTLGVHVNQAKQMLYDYVERKRKENSGAQLHVTYLVSGSLIQNGHSCHKVAVVREDKLEAVKSKLAVTASIHVYSIQKAMLKDSGPLFNTDYDILKSNLQNCSKFSAIQCAAAVPRAPAESSSSSKKFEQSHLHMSSETQANNELTTNGHGPPASKQVSQQPKGIMGMFASKAAAKTQETNKETKTEAKEVTNASAAGNKAPGKGNMMSNFFGKAAMNKFKVNLDSEQAVKEEKIVEQPTVSVTEPKLATPAGLKKSSKKAEPVKVLQKEKKRGKRVALSDDETKETENMRKKRRRIKLPESDSSEDEVFPDSPGAYEAESPSPPPPPSPPLEPVPKTEPEPPSVKSSSGENKRKRKRVLKSKTYLDGEGCIVTEKVYESESCTDSEEELNMKTSSVHRPPAMTVKKEPREERKGPKKGTAALGKANRQVSITGFFQRK
notes: DNA polymerase delta subunit 3 POLD3/p66, human; Expressed from a cassette with self-cleaving T2A peptides; T2A remnants probably stay on its ends and differ between the two cassettes (my surmise); also called p66; source: Sf9 insect cells, baculovirus co-infection (POLD2-T2A-POLD3-T2A-POLD4 or POLD2-T2A-POLD3 cassette), in lysate; co-purified with Flag-POLD1
For the molecule B1, the binding result in assay [1] and in assay [2] was “binds” throughout.

B2: POLD4 (accessory subunit of human DNA polymerase delta), untagged (natural protein, UniProt Q9HCU8 1-107, looked up)
chain: MGRKRLITDSYPVVKRREGPAGHSKGELAPELGEEPQPRDEEEAELELLRQFDLAWQYGPCTGITRLQRWCRAKQMGLEPPPEVWQVLKTHPGDPRFQCSLWHLYPL
notes: DNA polymerase delta subunit 4 POLD4/p12, human; Expressed from a cassette with self-cleaving T2A peptides; A residue of the T2A probably stays on its N-terminus (my surmise); also called p12; source: Sf9 insect cells, baculovirus co-infection (POLD2-T2A-POLD3-T2A-POLD4 cassette), in lysate; co-purified with Flag-POLD1
Consider B2, for which the binding result in assay [1] and in assay [2] was “binds” each time.

B3: POLD2 (accessory subunit of human DNA polymerase delta), untagged (natural protein)
chain: not shown
notes: DNA polymerase delta subunit 2 POLD2/p50, human; Expressed from a cassette with self-cleaving T2A peptides; A T2A remnant probably stays on its C-terminus (my surmise); also called p50; source: Sf9 insect cells, baculovirus co-infection (POLD2-T2A-POLD3-T2A-POLD4 or POLD2-T2A-POLD3 cassette), in lysate; co-purified with Flag-POLD1
For B3, the binding result in assay [2] is listed as “binds”.
